Laboratory results from US20220242962A1 (APTEVO RESEARCH AND DEVELOPMENT, published 2022).
Residue numbers refer to the chain shown, from its start. In names and notes the source's numbering stands. Values belong to the binder of their own block, whether it stands above or below them.

Key:
Human 4-1BB ECD-AFH = molecular target: T1, Human 4-1BB ECD-AFH (human); experiment: SPR, construct captured, monomeric ECD as analyte
T1 construct: entry includes the tags; also called FOB003; HUMAN CD137 ECD-AVI-FLAG-HIS
T1 sequence (chain, as listed by the source limits assumed): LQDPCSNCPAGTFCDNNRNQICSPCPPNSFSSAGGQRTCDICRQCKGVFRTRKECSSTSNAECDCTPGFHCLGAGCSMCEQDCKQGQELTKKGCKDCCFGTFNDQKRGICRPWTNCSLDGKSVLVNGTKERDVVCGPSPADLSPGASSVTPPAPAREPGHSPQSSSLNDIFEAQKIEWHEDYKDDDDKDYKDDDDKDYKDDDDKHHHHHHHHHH
Method: (§1) Mouse anti-human IgG (GE, BR-1008-39) at 25 μg/ml in 10 mM sodium acetate pH 5.0 was immobilized at a density of ˜10,000 response units (RU) onto each flow cell of a CM5 research-grade sensor chip (GE) by standard amine coupling chemistry. Each binding protein at approximately 100 nM in HBS-EP+ with 0.2% BSA buffer was captured in a flow cell with the immobilized anti-human IgG at a flow rate of 10 μL/min for 20 seconds, leaving one flow cell surface unmodified as the reference. Using a single-cycle kinetics mode, five different concentrations of ECD were sequentially injected through each flow cell at 30 μL/min for 300 seconds followed by a 600 second dissociation period. Regeneration was achieved by injection of 3 M MgCl₂ at a flow rate of 30 μL/min for 30 seconds followed by HBS-EP+ with 0.2% BSA buffer stabilization for 1 min.
(§2) Sensorgrams obtained from kinetic SPR measurements were analyzed by the double subtraction method. The signal from the reference flow cell was subtracted from the analyte binding response obtained from flow cells with immobilized or captured ligands. Buffer reference responses were then averaged from multiple injections. The averaged buffer reference responses were then subtracted from analyte binding responses, and the final double-referenced data were analyzed with Biacore T200 Evaluation software (2.0, GE), globally fitting data to derive kinetic parameters. All sensorgrams were fitted using a simple one-to-one binding model.
(§3) Protein was produced by transient expression, purified by ProA chromatography and prep SEC.

Human OX40 ECD-AFH = molecular target: T2, Human OX40 ECD-AFH (human); experiment: SPR, construct captured, monomeric ECD as analyte
T2 construct: ECD'; entry includes the C-terminal tags; also called OXF003; Human OX40 ECD-avi-flag-his
T2 chain: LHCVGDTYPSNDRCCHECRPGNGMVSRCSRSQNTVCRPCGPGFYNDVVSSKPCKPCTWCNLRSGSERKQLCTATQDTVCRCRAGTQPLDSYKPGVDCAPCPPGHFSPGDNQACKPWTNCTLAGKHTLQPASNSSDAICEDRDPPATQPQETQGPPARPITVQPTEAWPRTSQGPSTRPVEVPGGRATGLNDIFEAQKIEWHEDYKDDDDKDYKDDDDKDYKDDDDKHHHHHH
Method: as §1, §2, §3

Full-length Human OX40 [1] = molecular target: T3, Full-length Human OX40 (human, UniProt P43489 29-277); experiment: flow cytometry, CHO cells expressing human OX40
T3 construct: also called OXF001; human OX40/CHO
T3 sequence: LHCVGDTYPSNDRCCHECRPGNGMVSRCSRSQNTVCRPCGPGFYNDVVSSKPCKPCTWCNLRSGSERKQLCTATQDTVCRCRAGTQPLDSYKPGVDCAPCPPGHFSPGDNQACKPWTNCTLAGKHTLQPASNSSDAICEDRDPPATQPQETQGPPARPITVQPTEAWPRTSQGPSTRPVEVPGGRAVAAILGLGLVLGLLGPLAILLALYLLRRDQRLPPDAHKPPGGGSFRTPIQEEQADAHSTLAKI
Method: (§4) FIGS. 12A-12D show the binding of anti-4-1BB x anti-OX40 constructs, with additional humanization in 4-1BB and altered orientations of binding domains, human (12A) or cynomolgus (12C) 4-1BB-expressing Jurkat cells or human (12B) or cynomolgus (12D) OX40-expressing CHOK1SV cells. Serial dilutions of ADAPTIR™ constructs were incubated with transfected cells and subsequently labelled with a fluorescently-conjugated goat-a-human Fc secondary antibody. […] (See Example 19.)
(§5) Binding studies were performed using the flow cytometry-based staining procedures described above.

Full-length Human 4-1BB [2] = molecular target: T4, Full-length Human 4-1BB (human, UniProt Q07011 24-255); experiment: flow cytometry, Jurkat cells expressing human 4-1BB
T4 construct: also called FOB005; CD137
Method: as §4, §5

Full-length Cyno 4-1BB = molecular target: T5, Full-length Cyno 4-1BB (cynomolgus monkey, UniProt Q07011 24-255 (human entry)); experiment: flow cytometry on Jurkat cells transfected with cynomolgus 4-1BB, goat anti-human Fc secondary antibody, MFI (Mean)
T5 construct: on Jurkat or CHO cells; also called FOB006; cynomolgus 4-1BB
T5 chain: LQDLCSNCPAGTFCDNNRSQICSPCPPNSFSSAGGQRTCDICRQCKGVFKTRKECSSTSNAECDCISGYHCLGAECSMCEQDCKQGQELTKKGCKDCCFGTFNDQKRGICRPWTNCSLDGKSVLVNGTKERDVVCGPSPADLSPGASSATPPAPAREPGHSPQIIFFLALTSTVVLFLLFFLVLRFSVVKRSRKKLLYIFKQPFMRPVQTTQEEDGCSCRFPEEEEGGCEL
Method: as §4, §5

Full-length Human OX40 [3] = molecular target: T3, Full-length Human OX40; experiment: cell-based or functional assay
Full-length Human 4-1BB [4] = molecular target: T4, Full-length Human 4-1BB; experiment: cell-based or functional assay
Full-length Cyno OX40 = molecular target: T6, Full-length Cyno OX40 (cynomolgus monkey, UniProt P43489 29-277 (human entry)); experiment: flow cytometry on CHOK1SV cells transfected with cynomolgus OX40, goat anti-human Fc secondary antibody, MFI (Mean)
T6 construct: on CHO-K1SV cells; also called OXF004; cynomolgus OX40
T6 chain: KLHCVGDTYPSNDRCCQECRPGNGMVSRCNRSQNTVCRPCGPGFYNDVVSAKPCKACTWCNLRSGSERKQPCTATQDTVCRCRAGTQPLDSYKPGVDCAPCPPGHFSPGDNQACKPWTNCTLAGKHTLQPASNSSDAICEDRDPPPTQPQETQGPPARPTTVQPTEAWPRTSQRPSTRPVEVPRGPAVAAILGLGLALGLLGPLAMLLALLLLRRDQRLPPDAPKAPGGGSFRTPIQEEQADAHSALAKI
Method: as §4, §5

- Kd (Human 4-1BB ECD-AFH): 17 nM
- koff (Human 4-1BB ECD-AFH): 0.0055 s⁻¹
- kon (Human 4-1BB ECD-AFH): 320000 M⁻¹ s⁻¹
- Kd (Human OX40 ECD-AFH): 0.5 nM
- koff (Human OX40 ECD-AFH): 0.00032 s⁻¹
- kon (Human OX40 ECD-AFH): 710000 M⁻¹ s⁻¹
- EC50 (Full-length Human OX40 [1]): 0.32 nM
- max MFI (Full-length Human OX40 [1]): 10400 MFI
- EC50 (Full-length Human 4-1BB [2]): 0.31 nM
- max MFI (Full-length Human 4-1BB [2]): 4860 MFI
- EC50 (read off the curve) (Full-length Cyno 4-1BB): ~0.3 nM
- OX40 Reporter Assay EC50 (Full-length Human OX40 [3]): 0.013 nM
- OX40 Reporter Assay Max induction (Full-length Human OX40 [3]): 1.99e+06
- 4-1BB Reporter Assay EC50 (Full-length Human 4-1BB [4]): 0.011 nM
- 4-1BB Reporter Assay Max induction (Full-length Human 4-1BB [4]): 6.11e+06
- EC50 (read off the curve) (Full-length Cyno OX40): ~0.8 nM
B1: FXX01104 (bispecific antibody)
chain: EIVMTQSPATLSLSPGERATLSCRASQSVSSYLNWYQQKPGQAPRLLIYYASRRHTGIPARFSGSGSGTDFTLTISSLQPEDFAVYYCQQGYNLPYTFGQGTKVEIKGGGGSGGGGSGGGGSGGGGSEVQLVQSGAEVKKPGASVKVSCKASGYTFTSYWMNWVRQAPGQGLEWMGNIYPSGGSTNYAQKFQGRVTMTVDTSTSTVYMELSSLRSEDTAVYYCASFSDGYYAYAMDYWGQGTLVTVEPKSSDKTHTCPPCPAPPAAAPSVFLFPPKPKDTLMISRTPEVTCVVVDVSHEDPEVKFNWYVDGVEVHNAKTKPREEQYNSTYRVVSVLTVLHQDWLNGKEYKCAVSNKALPAPIEKTISKAKGQPREPQVYTLPPSRDELTKNQVSLTCLVKGFYPSDIAVEWESNGQPENNYKTTPPVLDSDGSFFLYSKLTVDKSRWQQGNVFSCSVMHEALHNHYTQKSLSLSPGGGGSPSSYVLTQPPSVSVAPGQTARITCGGNNIGSKSVNWFQQKPGQAPVLVVYDDSGRPSGIPERFSGSTSGNTATLTISRVEAGDEADYYCQVWDSSSDHVVFGGGTKLTVLGGGGSGGGGSGGGGSGGGGSQVQLVESGGGVVQPGRSLRLSCAASGFTLSYYGMHWVRQAPGKGLEWVAAISHDGSDKYYADSVKGRFTISRDNSKNTLYLQMNSLRAEDTAVYYCSNDQFDPWGQGTLVTVSSR
notes: ADAPTIR anti-4-1BB (LH) x anti-OX40; also called FX01104

- Kd (Human 4-1BB ECD-AFH): 18 nM
- koff (Human 4-1BB ECD-AFH): 0.0055 s⁻¹
- kon (Human 4-1BB ECD-AFH): 310000 M⁻¹ s⁻¹
- Kd (Human OX40 ECD-AFH): 0.8 nM
- koff (Human OX40 ECD-AFH): 0.00039 s⁻¹
- kon (Human OX40 ECD-AFH): 480000 M⁻¹ s⁻¹
- EC50 (Full-length Human OX40 [1]): 0.32 nM
- max MFI (Full-length Human OX40 [1]): 10300 MFI
- EC50 (Full-length Human 4-1BB [2]): 0.29 nM
- max MFI (Full-length Human 4-1BB [2]): 4770 MFI
- EC50 (read off the curve) (Full-length Cyno 4-1BB): ~0.3 nM
- OX40 Reporter Assay EC50 (Full-length Human OX40 [3]): 0.013 nM
- OX40 Reporter Assay Max induction (Full-length Human OX40 [3]): 2.07e+06
- 4-1BB Reporter Assay EC50 (Full-length Human 4-1BB [4]): 0.013 nM
- 4-1BB Reporter Assay Max induction (Full-length Human 4-1BB [4]): 6.61e+06
- EC50 (read off the curve) (Full-length Cyno OX40): ~0.8 nM
B2: FXX01108 (bispecific antibody)
chain: B1 chain with Q498K, T688R
notes: ADAPTIR anti-4-1BB (LH) x anti-OX40 with Q17K and T86R

- Kd (Human 4-1BB ECD-AFH): 18 nM
- koff (Human 4-1BB ECD-AFH): 0.0056 s⁻¹
- kon (Human 4-1BB ECD-AFH): 310000 M⁻¹ s⁻¹
- Kd (Human OX40 ECD-AFH): 0.5 nM
- koff (Human OX40 ECD-AFH): 0.00029 s⁻¹
- kon (Human OX40 ECD-AFH): 630000 M⁻¹ s⁻¹
- EC50 (Full-length Human OX40 [1]): 0.29 nM
- max MFI (Full-length Human OX40 [1]): 10300 MFI
- EC50 (Full-length Human 4-1BB [2]): 0.26 nM
- max MFI (Full-length Human 4-1BB [2]): 4700 MFI
- EC50 (read off the curve) (Full-length Cyno 4-1BB): ~0.3 nM
- OX40 Reporter Assay EC50 (Full-length Human OX40 [3]): 0.013 nM
- OX40 Reporter Assay Max induction (Full-length Human OX40 [3]): 2.14e+06
- 4-1BB Reporter Assay EC50 (Full-length Human 4-1BB [4]): 0.016 nM
- 4-1BB Reporter Assay Max induction (Full-length Human 4-1BB [4]): 6.85e+06
- EC50 (read off the curve) (Full-length Cyno OX40): ~0.8 nM
B3: FXX01107 (bispecific antibody)
chain: B1 chain with T688R
notes: ADAPTIR anti-4-1BB (LH) x anti-OX40 with T86R; also called FX01107
